# Assay results reported in PMC9256674, “Structures of LIG1 that engage with mutagenic mismatches inserted by polβ in base excision repair”.
# B1: nick DNA 3'-A:T (dsDNA)
# DNA 1: GCTGATGCGTA
# DNA 2: GTCGGAC
# DNA 3: GTCCGACTACGCATCAGC
# modifications: 5'-phosphate on downstream strand (GTCGGAC); adenylated (5'-AMP) in the crystal
# B2: nick DNA 3'-G:T (dsDNA)
# DNA 1: GCTGATGCGTG
# DNA 2: GTCGGAC
# DNA 3: GTCCGACTACGCATCAGC
# modifications: 5'-phosphate on downstream strand (GTCGGAC); adenylated (5'-AMP) in the crystal
# B3: nick DNA 3'-A:C (dsDNA)
# DNA 1: GCTGATGCGTA
# DNA 2: GTCGGAC
# DNA 3: GTCCGACCACGCATCAGC
# modifications: 5'-phosphate on downstream strand (GTCGGAC), not adenylated
# Columns and labels:
# [1] = biological target: AP-endonuclease 1 (human) (UniProt P27695); assay: SPR; Biacore X-100; APE1 amine-coupled on a CM5 chip, 25 °C; LIG1 0-1.6 µM injected as analyte in 20 mM HEPES pH 7.4, 150 mM NaCl, 3 mM EDTA, 0.005% Surfactant P20; 1:1 (Langmuir) fit
# AP-endonuclease 1 (human), sequence (P27695 whole entry): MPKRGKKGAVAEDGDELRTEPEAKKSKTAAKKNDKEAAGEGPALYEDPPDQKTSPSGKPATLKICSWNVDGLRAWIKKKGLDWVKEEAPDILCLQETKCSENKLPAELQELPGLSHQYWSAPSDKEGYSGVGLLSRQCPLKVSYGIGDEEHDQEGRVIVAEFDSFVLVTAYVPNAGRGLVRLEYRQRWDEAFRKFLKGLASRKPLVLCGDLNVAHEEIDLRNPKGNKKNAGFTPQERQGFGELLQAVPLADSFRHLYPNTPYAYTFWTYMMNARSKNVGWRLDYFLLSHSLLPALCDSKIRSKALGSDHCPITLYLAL
# [2] = biological target: T1, LIG1 EE/AA (C-terminal, Δ261) (Homo sapiens, UniProt P18858 262-919, E346A;E592A); assay: X-ray crystallography (2.9 Å); AMP as DNA-AMP (step 2); no Mg2+; Crystallization conditions not in the material; LIG1 final purification buffer 20 mM Tris-HCl pH 7.0, 200 mM NaCl, 1 mM DTT; storage 25 mM Tris-HCl pH 7.0, 200; details: protein: recombinant; nicked duplex: 11-mer upstream + 7-mer 5'-P downstream on 18-mer template; blunt ends; A:T at nick 3'-end
# T1 sequence (P18858 262-919 E346A/E592A): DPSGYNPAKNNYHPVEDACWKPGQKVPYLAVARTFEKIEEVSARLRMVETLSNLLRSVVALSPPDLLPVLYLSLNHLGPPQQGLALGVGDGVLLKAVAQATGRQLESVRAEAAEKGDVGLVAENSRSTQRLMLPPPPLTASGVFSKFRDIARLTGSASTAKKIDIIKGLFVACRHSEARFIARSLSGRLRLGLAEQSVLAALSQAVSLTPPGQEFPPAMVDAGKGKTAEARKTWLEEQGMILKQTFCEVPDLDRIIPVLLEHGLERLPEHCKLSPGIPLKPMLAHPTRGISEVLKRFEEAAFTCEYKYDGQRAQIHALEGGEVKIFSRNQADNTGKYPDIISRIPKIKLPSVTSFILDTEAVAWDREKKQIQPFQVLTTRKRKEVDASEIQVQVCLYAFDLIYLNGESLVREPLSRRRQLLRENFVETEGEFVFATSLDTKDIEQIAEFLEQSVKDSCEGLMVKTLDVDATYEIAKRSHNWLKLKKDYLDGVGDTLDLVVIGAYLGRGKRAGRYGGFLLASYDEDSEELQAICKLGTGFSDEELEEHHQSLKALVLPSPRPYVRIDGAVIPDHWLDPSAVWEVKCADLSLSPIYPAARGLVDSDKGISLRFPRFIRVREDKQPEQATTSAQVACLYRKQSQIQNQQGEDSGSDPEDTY
# [3] = biological target: T1, LIG1 EE/AA (C-terminal, Δ261); assay: X-ray crystallography (3.0 Å); AMP as DNA-AMP (step 2); no Mg2+; Crystallization conditions not in the material; LIG1 final purification buffer 20 mM Tris-HCl pH 7.0, 200 mM NaCl, 1 mM DTT; storage 25 mM Tris-HCl pH 7.0, 200; details: protein: recombinant; nicked duplex: 11-mer upstream + 7-mer 5'-P downstream on 18-mer template; blunt ends; G:T wobble mismatch at nick 3'-end
# [4] = biological target: T1, LIG1 EE/AA (C-terminal, Δ261); assay: X-ray crystallography (2.8 Å); AMP covalently on K568 (LIG1-AMP, step 1); no Mg2+; Crystallization conditions not in the material; LIG1 final purification buffer 20 mM Tris-HCl pH 7.0, 200 mM NaCl, 1 mM DTT; storage 25 mM Tris-HCl pH 7.0, 200; details: protein: recombinant; nicked duplex: 11-mer upstream + 7-mer 5'-P downstream on 18-mer template; blunt ends; A:C wobble mismatch at nick 3'-end
molecule,measurement,setting,value
DNA ligase I (from UniProt P18858 1-919) (enzyme),Kd,[1],117 nM
B1,binding result,[2],binds
B2,binding result,[3],binds
B3,binding result,[4],binds
